Measured values published in article PMC3031242, “A novel neuron-enriched protein SDIM1 is down regulated in Alzheimer's brains and attenuates cell death induced by DNAJB4 over-expression in neuro-progenitor cells” (Molecular Neurodegeneration, 2011).

Molecular target: the molecule itself
Assay: dimer-sized band on SDS-PAGE and Western blot; purified GST-SDIM1 (Coomassie and anti-SDIM1 blot, Figure 3A; anti-GST blot of the anti-GST immunoprecipitate, Figure 3D left panel lane 4)

B1: GST-SDIM1 fusion protein (domain or fragment, human, UniProt Q6ZPB5 27-146, looked up)
chain: AGPSPGARTTLGSPLSLWSIKTPSHIFCTRRAINLGFPSPPLVQLIFWSLNAGLDLYLCLISSCGFSQVFWPVEAFCSFSLSFFALALSHKFVICRLDQHIFSGFTKSLKNLPPCHRTDI
notes: first residue C27 mutated to A to increase solubility in E. coli; Cloned into pGEX-3X; GST itself is known to dimerise; also called recombinant GST-SDIM1; SDIM1-GST fusion protein; source: E. coli Rosetta cells, purified (glutathione column)
Question: Does B1 bind?
Answer: Result: binds
